Test results from patent US12357582B2, “Hydrophobic ion pairing and flash nanoprecipitation for formation of controlled-release nanocarrier formulations” (The Trustees of Princeton University, priority 2017, dated 2025).

Experiments:
[1] = Encapsulation efficiency (ultrafiltration, BCA assay); type: physicochemical; conditions: LL37:SDS 1:1 PCL5k-b-PEG5k NPs
[2] = Particle size and polydispersity by dynamic light scattering; type: physicochemical; conditions: LL37 pre-ion paired with SDS 1:1 charge ratio, PCL5k-b-PEG5k NPs

LL37: cationic antibiotic peptide, 1719 Da, sequence FKRIVQRIKDFLR (nanoparticle formulation; LL37) [reference compound]
Encapsulation efficiency [1]: over 95% | NP diameter [2]: ~120 nm
